Reference: paper PMC2783222 (2010)

How the values were obtained:
ADAM23 [1] = biological target: T1, ADAM23 (Homo sapiens, UniProt O75077); assay: LGI1-AP fusion binding to transfected COS-7 cells, Scatchard
T1 chain: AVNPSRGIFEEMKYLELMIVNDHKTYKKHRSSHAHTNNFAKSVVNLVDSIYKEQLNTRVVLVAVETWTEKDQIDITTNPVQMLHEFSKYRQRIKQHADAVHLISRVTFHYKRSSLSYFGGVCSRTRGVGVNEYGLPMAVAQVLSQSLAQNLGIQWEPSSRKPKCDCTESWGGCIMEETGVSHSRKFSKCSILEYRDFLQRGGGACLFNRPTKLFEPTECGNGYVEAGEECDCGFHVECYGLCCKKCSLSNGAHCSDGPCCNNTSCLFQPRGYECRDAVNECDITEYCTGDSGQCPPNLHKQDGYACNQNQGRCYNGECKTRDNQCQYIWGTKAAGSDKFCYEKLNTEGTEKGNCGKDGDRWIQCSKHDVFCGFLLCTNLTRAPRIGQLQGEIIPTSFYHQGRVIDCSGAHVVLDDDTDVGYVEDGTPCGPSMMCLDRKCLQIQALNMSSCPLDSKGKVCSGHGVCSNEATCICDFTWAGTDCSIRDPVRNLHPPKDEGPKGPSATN

ADAM22 = biological target: T2, ADAM22 (Homo sapiens, UniProt Q9P0K1); assay: LGI1-AP fusion binding to transfected COS-7 cells
T2 chain: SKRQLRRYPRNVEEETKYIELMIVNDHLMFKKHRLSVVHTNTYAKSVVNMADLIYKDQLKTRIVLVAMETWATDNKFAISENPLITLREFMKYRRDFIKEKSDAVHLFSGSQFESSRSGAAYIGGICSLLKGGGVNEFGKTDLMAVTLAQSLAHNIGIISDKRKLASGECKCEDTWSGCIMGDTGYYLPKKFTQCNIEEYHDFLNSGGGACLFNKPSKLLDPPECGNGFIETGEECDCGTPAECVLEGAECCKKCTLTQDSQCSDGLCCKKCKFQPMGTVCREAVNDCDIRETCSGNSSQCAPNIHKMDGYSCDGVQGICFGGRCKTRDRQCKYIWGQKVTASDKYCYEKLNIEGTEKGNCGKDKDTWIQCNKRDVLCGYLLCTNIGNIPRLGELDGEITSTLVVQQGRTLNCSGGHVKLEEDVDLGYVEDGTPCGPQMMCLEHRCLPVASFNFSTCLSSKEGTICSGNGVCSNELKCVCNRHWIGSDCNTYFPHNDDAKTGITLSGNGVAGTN

ADAM11 = biological target: T3, ADAM11 (Homo sapiens, UniProt O75078); assay: LGI1-AP fusion binding to transfected COS-7 cells
T3 chain: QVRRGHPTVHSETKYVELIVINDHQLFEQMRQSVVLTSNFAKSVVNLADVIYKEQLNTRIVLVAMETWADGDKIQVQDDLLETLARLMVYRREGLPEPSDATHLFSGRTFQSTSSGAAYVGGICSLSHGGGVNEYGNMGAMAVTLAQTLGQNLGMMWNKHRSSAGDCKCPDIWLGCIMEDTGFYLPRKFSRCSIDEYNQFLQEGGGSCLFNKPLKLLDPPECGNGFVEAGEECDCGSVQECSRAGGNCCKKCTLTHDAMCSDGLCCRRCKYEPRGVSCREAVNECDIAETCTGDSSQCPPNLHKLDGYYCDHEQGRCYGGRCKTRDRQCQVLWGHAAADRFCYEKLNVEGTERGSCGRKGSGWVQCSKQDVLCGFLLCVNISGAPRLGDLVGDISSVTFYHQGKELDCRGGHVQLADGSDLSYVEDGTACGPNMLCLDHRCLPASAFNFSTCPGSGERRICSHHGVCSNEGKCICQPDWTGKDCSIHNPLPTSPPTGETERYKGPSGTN

ADAM23 [2] = biological target: T1, ADAM23; assay: LGI1-AP fusion binding to transfected COS-7 cells

- Kd (ADAM23 [1]): 10 nM
- Kd (ADAM22): 15 nM
- Kd (ADAM11): 15 nM
- Kd (ADAM23 [2]): 15 nM
B1: LGI1 (protein)
chain: KKPAKPKCPAVCTCTKDNALCENARSIPRTVPPDVISLSFVRSGFTEISEGSFLFTPSLQLLLFTSNSFDVISDDAFIGLPHLEYLFIENNNIKSISRHTFRGLKSLIHLSLANNNLQTLPKDIFKGLDSLTNVDLRGNSFNCDCKLKWLVEWLGHTNATVEDIYCEGPPEYKKRKINSLSSKDFDCIITEFAKSQDLPYQSLSIDTFSYLNDEYVVIAQPFTGKCIFLEWDHVEKTFRNYDNITGTSTVVCKPIVIETQLYVIVAQLFGGSHIYKRDSFANKFIKIQDIEILKIRKPNDIETFKIENNWYFVVADSSKAGFTTIYKWNGNGFYSHQSLHAWYRDTDVEYLEIVRTPQTLRTPHLILSSSSQRPVIYQWNKATQLFTNQTDIPNMEDVYAVKHFSVKGDVYICLTRFIGDSKVMKWGGSSFQDIQRMPSRGSMVFQPLQINNYQYAILGSDYSFTQVYNWDAEKAKFVKFQELNVQAPRSFTHVSINKRNFLFASSFKGNTQIYKHVIVDLSA
